The target in experiment [1] is T1, mouse TLR7-Flag-His×6, expressed in Ba/F3 cells (mouse, UniProt P58681 27-1050).
T1 construct: cells permeabilised with 0.1% saponin; not shown: Flag-His×6 tag added to the C-terminus
T1 sequence: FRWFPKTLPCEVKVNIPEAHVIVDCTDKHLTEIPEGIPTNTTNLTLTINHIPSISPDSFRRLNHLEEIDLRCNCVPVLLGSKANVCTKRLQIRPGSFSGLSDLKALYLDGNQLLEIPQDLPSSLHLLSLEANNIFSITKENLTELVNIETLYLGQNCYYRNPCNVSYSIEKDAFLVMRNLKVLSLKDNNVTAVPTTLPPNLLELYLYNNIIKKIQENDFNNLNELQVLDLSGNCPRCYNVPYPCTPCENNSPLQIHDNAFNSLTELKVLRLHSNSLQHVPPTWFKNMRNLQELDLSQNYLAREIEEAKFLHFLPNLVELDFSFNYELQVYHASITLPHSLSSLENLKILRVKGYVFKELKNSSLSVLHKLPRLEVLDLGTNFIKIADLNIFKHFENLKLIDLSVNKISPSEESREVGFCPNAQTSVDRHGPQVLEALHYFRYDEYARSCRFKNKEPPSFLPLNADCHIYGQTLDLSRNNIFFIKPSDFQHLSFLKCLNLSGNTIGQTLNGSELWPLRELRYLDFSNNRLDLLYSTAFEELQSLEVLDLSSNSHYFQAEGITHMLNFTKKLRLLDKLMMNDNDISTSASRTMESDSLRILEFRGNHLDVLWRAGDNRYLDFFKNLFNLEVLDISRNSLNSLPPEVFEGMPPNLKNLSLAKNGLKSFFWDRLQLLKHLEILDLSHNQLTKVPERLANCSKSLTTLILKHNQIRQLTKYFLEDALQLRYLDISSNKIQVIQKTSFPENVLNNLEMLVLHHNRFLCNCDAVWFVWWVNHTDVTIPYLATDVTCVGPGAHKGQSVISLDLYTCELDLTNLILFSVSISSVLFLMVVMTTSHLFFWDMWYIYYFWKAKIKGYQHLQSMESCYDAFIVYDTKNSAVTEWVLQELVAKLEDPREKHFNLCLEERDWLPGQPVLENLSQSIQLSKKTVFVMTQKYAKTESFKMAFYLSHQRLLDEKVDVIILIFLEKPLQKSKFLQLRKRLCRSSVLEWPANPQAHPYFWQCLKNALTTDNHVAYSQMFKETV
As to the kind of experiment: flow cytometry (MFI) on saponin-permeabilised Ba/F3 cells expressing mouse TLR7-Flag-His×6. From the text:
(§1) The Ba/F3 cell line expressing human TLR7-Flag-His×6/human Unc93B1-HA×2 established above in 1)-1-1, the Ba/F3 cell line expressing mouse TLR7-Flag-His×6 established above in 2)-1-1, the Ba/F3 cell line expressing rat TLR7-Flag-His×6×2 established above in 2)-1-2, and the Ba/F3 cell line expressing monkey TLR7-Flag-His×6 established above in 2)-1-3 were subjected to membrane permeation with 0.1% Saponin and stained using AT01 antibody, NB7 antibody, and FAN2 antibody, and a secondary antibody, Goat anti-mouse IgG (H+L)-PE (eBioscience). The binding selectivity of each antibody was evaluated by comparing the average fluorescence intensity (MFI) based on flow cytometry analysis.
A general note: In flow cytometry, cells or beads pass a laser one at a time.

For experiment [2], the target named is T2, monkey TLR7-Flag-His×6, expressed in Ba/F3 cells (monkey, UniProt Q9NYK1 27-1049 (human entry)).
T2 construct: cells permeabilised with 0.1% saponin; not shown: Flag-His×6 tag added to the C-terminus
T2 chain: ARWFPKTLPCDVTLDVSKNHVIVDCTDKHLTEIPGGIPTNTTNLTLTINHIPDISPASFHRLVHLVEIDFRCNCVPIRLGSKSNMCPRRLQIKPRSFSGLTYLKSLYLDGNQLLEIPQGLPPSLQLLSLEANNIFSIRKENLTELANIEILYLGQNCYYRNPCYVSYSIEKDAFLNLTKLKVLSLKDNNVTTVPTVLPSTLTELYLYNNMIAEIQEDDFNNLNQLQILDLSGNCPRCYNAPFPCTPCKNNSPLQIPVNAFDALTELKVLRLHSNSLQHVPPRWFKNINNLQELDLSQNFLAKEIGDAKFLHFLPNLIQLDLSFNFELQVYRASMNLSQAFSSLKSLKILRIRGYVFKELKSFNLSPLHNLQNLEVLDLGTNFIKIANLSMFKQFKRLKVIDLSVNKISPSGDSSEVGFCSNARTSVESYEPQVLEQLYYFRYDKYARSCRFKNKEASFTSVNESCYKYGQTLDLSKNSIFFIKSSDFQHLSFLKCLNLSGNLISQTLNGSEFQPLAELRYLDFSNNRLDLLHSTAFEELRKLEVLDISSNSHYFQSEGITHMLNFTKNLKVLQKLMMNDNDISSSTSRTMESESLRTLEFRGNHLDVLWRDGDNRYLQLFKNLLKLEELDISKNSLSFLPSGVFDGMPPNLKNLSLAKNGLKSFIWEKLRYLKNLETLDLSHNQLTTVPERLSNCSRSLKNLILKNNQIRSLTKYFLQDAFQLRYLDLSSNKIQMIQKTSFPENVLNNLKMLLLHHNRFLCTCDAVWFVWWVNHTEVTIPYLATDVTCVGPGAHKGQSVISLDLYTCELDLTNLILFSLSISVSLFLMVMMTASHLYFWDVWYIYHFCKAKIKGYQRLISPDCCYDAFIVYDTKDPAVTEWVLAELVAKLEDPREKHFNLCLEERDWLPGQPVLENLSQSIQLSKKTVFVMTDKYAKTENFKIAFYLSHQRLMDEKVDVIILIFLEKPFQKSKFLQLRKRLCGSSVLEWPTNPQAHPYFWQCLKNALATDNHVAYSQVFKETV
As to the kind of experiment: flow cytometry (MFI) on saponin-permeabilised Ba/F3 cells expressing monkey TLR7-Flag-His×6.
Source text: as §1

B1: NB7 antibody (antibody, IgG1, V domains shown)
VH: DVQLQESGPGLVKPSQSLSLTCTVTGYSITSDYAWNWIRQFPGNKLEWMGHISYRGNTNYNPSLKSRISITRDTSKNQFFLQLNSVTTEDTATYYCASWNYYGYVDYAMDYWGQGTSVTVSS
VL: DIQMTQTPSSLSASLGDRVTISCRASQDISNYLNWYQQKPDGTVKLLIYYTSRLHSGVPSRFSGSGSGTDYSLTINNLEQEDIATYFCQQGDTFPTFGGGTKLEIK
notes: also called mouse anti-human TLR7 antibody (NB7)
In the case of B1, the binding result in experiment [1] was “no binding”; in experiment [2], “binds”.

B2: FAN2 antibody (antibody, IgG1, V domains shown)
VH: QVQLKESGPGLVAPSQSLSITCTVSGFSLTGYGVNWVRQPPGKGLEWLGMIWGDGSTDYNSALKSRLSIRKDNSKSQVFLKMNSLQTDDTARYYCARDKGYDGYYYAMDYWGQGTSVTVSS
VL: DIQMTQSPASLSASVGETVTITCRASENIYSYLAWYQQKQGKSPQLLVYDAKTLAEGVPSRFSGSGSGTQFSLKINSLQPEDFGSYYCQHHYGIPYTFGGGTKLEIK
notes: also called mouse anti-human TLR7 antibody (FAN2)
In the case of B2, the figures for the binding result in experiment [1] and in experiment [2] were “no binding” and “binds”, respectively.

B3: AT01 antibody (antibody, IgG1, V domains shown)
VH: QVQLQQPGAELVKPGASVNLSCKASGYTFTNNWLHWVKQRPGRGLEWIGDIYPSNGRTNYNEQFKTKATLTVDKSSSTAYMQLSSLTSEDSAVYFCARERGYFDYWGQGTALTVSS
VL: DIQMTQSPSSLSTSLGGKVTITCKASQDINKYIAWYQHKPGKGPRLLIHYTSTLQPGIPSRFSGSGSGRDYSFSISNLEPEDIATYYCLQYDYLLTFGAGTKLELK
notes: also called mouse anti-human TLR7 antibody (AT01)
B3: the binding result is on record as “no binding” in experiment [1] and “binds” in experiment [2].
